{
  "source": "patent US20220363770A1",
  "about": "(Amgen, published 2022)",
  "binders": {"B1": {"name": "anti-CGRP receptor variant antibody 10, bivalent monoclonal antibody (antibody, human IgG1, lambda, N297G, V domains shown)", "VH": "QVQLVESGGGVVQPGRSLRLSCAASGFFFGSYGMHWVRQAPGKGLEWVAVISFAGEIEHYVDSVKGRFTISRDNSKNTLFLQMNSLRAEDTAVYYCARDRLNYYESSGYYHYKYYGMAVWGQGTTVTVSS", "VL": "QSVLTQPPSVSAAPGQKVTISCSGSSSNIGNNYVSWYQQLPGTAPKLLIYDNNKRPSGIPDRFSGSKSGTSATLGITGLQTGDEADYYCGTWDSRLSAVVFGGGTKLTVLG"}, "B2": {"name": "anti-CGRP receptor variant antibody 06, bivalent monoclonal antibody (antibody, human IgG1, lambda, N297G, V domains shown)", "VH": "B1 VH with F28T, G30S, Y32F, A54D, E56S, E58K, H59Y, Y60S", "VL": "B1 VL with S26Y, N31R, N32K, Y33S"}, "B3": {"name": "anti-CGRP receptor variant antibody 01, bivalent monoclonal antibody (antibody, human IgG1, lambda, N297G, V domains shown)", "VH": "B1 VH with F28T, G30S, Y32F, A54D, E56S, E58K, H59Y, Y60S", "VL": "B1 VL with S26Y, N31R, N32Y, Y33S"}, "B4": {"name": "anti-CGRP receptor variant antibody 09, bivalent monoclonal antibody (antibody, human IgG1, lambda, N297G, V domains shown)", "VH": "B1 VH with F28T, G30S, Y32F, E58D, H59Y", "VL": "B1 VL"}, "B5": {"name": "anti-CGRP receptor variant antibody 07, bivalent monoclonal antibody (antibody, human IgG1, lambda, N297G, V domains shown)", "VH": "B1 VH with F28Y, G30M, S31T, A54D, E56S, E58K, H59Y, Y60S", "VL": "B1 VL"}, "B6": {"name": "anti-CGRP receptor variant antibody 02, bivalent monoclonal antibody (antibody, human IgG1, lambda, N297G, V domains shown)", "VH": "B1 VH with F28T, G30S, Y32F, A54D, E56S, E58K, H59Y, Y60S", "VL": "B1 VL with S26R, N31I, N32K, Y33A"}, "B7": {"name": "anti-CGRP receptor variant antibody 08, bivalent monoclonal antibody (antibody, human IgG1, lambda, N297G, V domains shown)", "VH": "B1 VH with F28T, G30S, Y32F, A54D, E56S, E58K, H59Y, Y60S", "VL": "B1 VL with S26Y, N31W, N32W, Y33P"}, "B8": {"name": "anti-CGRP receptor variant antibody 04, bivalent monoclonal antibody (antibody, human IgG1, lambda, N297G, V domains shown)", "VH": "QVQLVESGGGVVQPGRSLRLSCAASGFTFSSFGMHWVRQAPGKGLEWVAVISFDGSIKYSVDSVKGRFTISRDNSKNTLFLQMNSLRAEDTAVYYCARDRLNYYRSFGYYGYHYYGMAVWGQGTTVTVSS", "VL": "B1 VL"}, "B9": {"name": "4E4.2 parental antibody, bivalent monoclonal antibody (antibody, human IgG1, lambda, N297G, V domains shown)", "VH": "B8 VH with R105E, F107S, G111H, H113K", "VL": "B1 VL"}, "B10": {"name": "anti-CGRP receptor variant antibody 05, bivalent monoclonal antibody (antibody, human IgG1, lambda, N297G, V domains shown)", "VH": "B8 VH with R105E, F107S, G111H, H113K", "VL": "QSVLTQPPSVSAAPGQKVTISCSGSFSNIGRSTVSWYQQLPGTAPKLLIYDNRWRAGGIPDRFSGSKSGTSATLGITGLQTGDEADYYCGTWDYQWKAVVFGGGTKLTVLG"}, "B11": {"name": "iPS:454735 (bispecific antibody, human IgG1, kappa, lambda, N297G)", "light 1": "QSVLTQPPSVSAAPGQKVTISCSGSYSNIGRYSVSWYQQLPGTAPKLLIYDNNKRPSGIPDRFSGSKSGTSATLGITGLQTGDEADYYCGTWDSRLSAVVFGGGTKLTVLGQPKAAPSVTLFPPSSEELQANKATLVCLISDFYPGAVTVAWKADSSPVKAGVETTTPSKQSNNKYAAKSYLSLTPEQWKSHRSYSCQVTHEGSTVEKTVAPTECS", "heavy 1": "QVQLVESGGGVVQPGRSLRLSCAASGFTFSSFGMHWVRQAPGKGLEWVAVISFDGSIKYSVDSVKGRFTISRDNSKNTLFLQMNSLRAEDTAVYYCARDRLNYYESSGYYHYKYYGMAVWGQGTTVTVSSASTKGPSVFPLAPSSKSTSGGTAALGCLVKDYFPEPVTVSWNSGALTSGVHTFPAVLQSSGLYSLESVVTVPSSSLGTQTYICNVNHKPSNTKVDKKVEPKSCDKTHTCPPCPAPELLGGPSVFLFPPKPKDTLMISRTPEVTCVVVDVSHEDPEVKFNWYVDGVEVHNAKTKPCEEQYGSTYRCVSVLTVLHQDWLNGKEYKCKVSNKALPAPIEKTISKAKGQPREPQVYTLPPSRKKMTKNQVSLTCLVKGFYPSDIAVEWESNGQPENNYKTTPPVLKSDGSFFLYSKLTVDKSRWQQGNVFSCSVMHEALHNHYTQKSLSLSPGK", "light 2": "EIVLTQSPATLSLSPGERATLSCRASKSVGQSLHWYQQKPGQAPRLLIKYASQSLSGIPARFSGSGSGTDFTLTISSLEPEDFAVYYCHQSSRLPFTFGPGTKVDIKRTVAAPSVFIFPPSDEQLKSGTASVVCLLNNFYPREAKVQWKVDNALQSGNSQESVTEQDSKDSTYSLESTLTLSKADYEKHKVYACEVTHQGLSSPVTKSFNRGEC", "heavy 2": "not shown"}, "B12": {"name": "iPS:454737 (bispecific antibody, human IgG1, kappa, lambda, N297G)", "light 1": "B11 light 1", "heavy 1": "B11 heavy 1", "light 2": "B11 light 2", "heavy 2": "not shown"}, "B13": {"name": "iPS:454739 (bispecific antibody, human IgG1, kappa, lambda, N297G)", "light 1": "B11 light 1", "heavy 1": "B11 heavy 1", "light 2": "B11 light 2 with Q31W", "heavy 2": "not shown"}},
  "note": "Numbering of substitutions follows the chain as printed.",
  "data": [
    {"molecular_target": "human CGRP receptor (human CRLR / human RAMP1 heterodimer) (human, UniProt Q16602 23-461; O60894 27-148)", "sequence (Q16602 23-461 limits assumed, chain 1 of 2)": "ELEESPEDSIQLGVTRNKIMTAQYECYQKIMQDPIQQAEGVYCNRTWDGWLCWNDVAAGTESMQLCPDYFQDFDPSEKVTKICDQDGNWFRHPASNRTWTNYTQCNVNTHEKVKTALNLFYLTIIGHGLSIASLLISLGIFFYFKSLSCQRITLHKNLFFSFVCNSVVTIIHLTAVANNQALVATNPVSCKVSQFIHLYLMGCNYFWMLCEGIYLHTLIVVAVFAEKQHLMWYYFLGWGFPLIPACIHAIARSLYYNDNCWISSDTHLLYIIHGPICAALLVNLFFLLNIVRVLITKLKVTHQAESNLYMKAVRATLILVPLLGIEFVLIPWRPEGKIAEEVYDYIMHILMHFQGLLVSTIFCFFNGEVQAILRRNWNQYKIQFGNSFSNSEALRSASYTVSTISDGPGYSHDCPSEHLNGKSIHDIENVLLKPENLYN", "sequence (O60894 27-148 limits assumed, chain 2 of 2)": "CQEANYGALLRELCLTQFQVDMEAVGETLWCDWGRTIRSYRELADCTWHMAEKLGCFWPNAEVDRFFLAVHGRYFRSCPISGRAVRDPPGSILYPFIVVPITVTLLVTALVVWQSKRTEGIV", "assay": "cell-based or functional assay", "units": {"Average IC50 (nM), cell-based cAMP assay, SK-N-MC cells, 3 nM human α-CGRP": "nM", "Fold-improvement over 4E4 Ab (IC50, cAMP assay)": "fold", "Run 1 IC50 (nM), cell-based cAMP assay, SK-N-MC cells, 3 nM human α-CGRP": "nM", "Run 2 IC50 (nM), cell-based cAMP assay, SK-N-MC cells, 3 nM human α-CGRP": "nM"}, "values": [
      {"binder": "B1", "Average IC50 (nM), cell-based cAMP assay, SK-N-MC cells, 3 nM human α-CGRP": 0.56, "Fold-improvement over 4E4 Ab (IC50, cAMP assay)": 1, "Run 1 IC50 (nM), cell-based cAMP assay, SK-N-MC cells, 3 nM human α-CGRP": 0.43, "Run 2 IC50 (nM), cell-based cAMP assay, SK-N-MC cells, 3 nM human α-CGRP": 0.68},
      {"binder": "B2", "Average IC50 (nM), cell-based cAMP assay, SK-N-MC cells, 3 nM human α-CGRP": 0.15, "Fold-improvement over 4E4 Ab (IC50, cAMP assay)": 3.7, "Run 1 IC50 (nM), cell-based cAMP assay, SK-N-MC cells, 3 nM human α-CGRP": 0.14, "Run 2 IC50 (nM), cell-based cAMP assay, SK-N-MC cells, 3 nM human α-CGRP": 0.15},
      {"binder": "B3", "Average IC50 (nM), cell-based cAMP assay, SK-N-MC cells, 3 nM human α-CGRP": 0.14, "Fold-improvement over 4E4 Ab (IC50, cAMP assay)": 3.9, "Run 1 IC50 (nM), cell-based cAMP assay, SK-N-MC cells, 3 nM human α-CGRP": 0.13, "Run 2 IC50 (nM), cell-based cAMP assay, SK-N-MC cells, 3 nM human α-CGRP": 0.14},
      {"binder": "B4", "Average IC50 (nM), cell-based cAMP assay, SK-N-MC cells, 3 nM human α-CGRP": 0.86, "Fold-improvement over 4E4 Ab (IC50, cAMP assay)": 0.6, "Run 1 IC50 (nM), cell-based cAMP assay, SK-N-MC cells, 3 nM human α-CGRP": 0.73, "Run 2 IC50 (nM), cell-based cAMP assay, SK-N-MC cells, 3 nM human α-CGRP": 1},
      {"binder": "B5", "Average IC50 (nM), cell-based cAMP assay, SK-N-MC cells, 3 nM human α-CGRP": 0.29, "Fold-improvement over 4E4 Ab (IC50, cAMP assay)": 1.9, "Run 1 IC50 (nM), cell-based cAMP assay, SK-N-MC cells, 3 nM human α-CGRP": 0.18, "Run 2 IC50 (nM), cell-based cAMP assay, SK-N-MC cells, 3 nM human α-CGRP": 0.39},
      {"binder": "B6", "Average IC50 (nM), cell-based cAMP assay, SK-N-MC cells, 3 nM human α-CGRP": 0.12, "Fold-improvement over 4E4 Ab (IC50, cAMP assay)": 4.6, "Run 1 IC50 (nM), cell-based cAMP assay, SK-N-MC cells, 3 nM human α-CGRP": 0.1, "Run 2 IC50 (nM), cell-based cAMP assay, SK-N-MC cells, 3 nM human α-CGRP": 0.13},
      {"binder": "B7", "Average IC50 (nM), cell-based cAMP assay, SK-N-MC cells, 3 nM human α-CGRP": 0.3, "Fold-improvement over 4E4 Ab (IC50, cAMP assay)": 1.8, "Run 1 IC50 (nM), cell-based cAMP assay, SK-N-MC cells, 3 nM human α-CGRP": 0.28, "Run 2 IC50 (nM), cell-based cAMP assay, SK-N-MC cells, 3 nM human α-CGRP": 0.31},
      {"binder": "B8", "Average IC50 (nM), cell-based cAMP assay, SK-N-MC cells, 3 nM human α-CGRP": 0.17, "Fold-improvement over 4E4 Ab (IC50, cAMP assay)": 3.1, "Run 1 IC50 (nM), cell-based cAMP assay, SK-N-MC cells, 3 nM human α-CGRP": 0.14, "Run 2 IC50 (nM), cell-based cAMP assay, SK-N-MC cells, 3 nM human α-CGRP": 0.21},
      {"binder": "B9", "Average IC50 (nM), cell-based cAMP assay, SK-N-MC cells, 3 nM human α-CGRP": 0.45, "Fold-improvement over 4E4 Ab (IC50, cAMP assay)": 1.2, "Run 1 IC50 (nM), cell-based cAMP assay, SK-N-MC cells, 3 nM human α-CGRP": 0.34, "Run 2 IC50 (nM), cell-based cAMP assay, SK-N-MC cells, 3 nM human α-CGRP": 0.56},
      {"binder": "B10", "Average IC50 (nM), cell-based cAMP assay, SK-N-MC cells, 3 nM human α-CGRP": 0.2, "Fold-improvement over 4E4 Ab (IC50, cAMP assay)": 2.7, "Run 1 IC50 (nM), cell-based cAMP assay, SK-N-MC cells, 3 nM human α-CGRP": 0.15, "Run 2 IC50 (nM), cell-based cAMP assay, SK-N-MC cells, 3 nM human α-CGRP": 0.25}
    ]},
    {"molecular_target": "human CGRP receptor (human, UniProt Q16602 23-461; O60894 27-148)", "sequence (Q16602 23-461 limits assumed, chain 1 of 2)": "as the sequence (Q16602 23-461 limits assumed, chain 1 of 2) above", "sequence (O60894 27-148 limits assumed, chain 2 of 2)": "as the sequence (O60894 27-148 limits assumed, chain 2 of 2) above", "assay": "cell-based or functional assay", "units": {"Fold-improvement over 4E4 Ab": "fold", "IC50": "pM"}, "values": [
      {"binder": "B11", "Fold-improvement over 4E4 Ab": 1, "IC50": 520},
      {"binder": "B12", "Fold-improvement over 4E4 Ab": 0.9, "IC50": 550},
      {"binder": "B13", "Fold-improvement over 4E4 Ab": 0.9, "IC50": 570}
    ]},
    {"molecular_target": "T1, human PAC1 receptor (human, UniProt P41586 24-468)", "T1 sequence": "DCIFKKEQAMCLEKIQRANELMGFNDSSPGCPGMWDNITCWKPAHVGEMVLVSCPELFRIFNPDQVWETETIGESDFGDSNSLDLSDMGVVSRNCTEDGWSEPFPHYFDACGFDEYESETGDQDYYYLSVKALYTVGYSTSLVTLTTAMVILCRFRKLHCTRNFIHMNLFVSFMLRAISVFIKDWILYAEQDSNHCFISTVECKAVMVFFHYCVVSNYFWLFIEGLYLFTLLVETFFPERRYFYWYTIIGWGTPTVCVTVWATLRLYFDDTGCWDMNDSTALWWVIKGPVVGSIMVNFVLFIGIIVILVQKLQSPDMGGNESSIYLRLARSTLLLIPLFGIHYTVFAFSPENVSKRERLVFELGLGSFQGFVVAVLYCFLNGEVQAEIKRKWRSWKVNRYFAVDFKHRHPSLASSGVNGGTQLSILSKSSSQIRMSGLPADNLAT", "assay": "cell-based or functional assay", "units": {"Fold-improvement over 29G4v22 Ab": "fold", "IC50": "pM"}, "values": [
      {"binder": "B11", "Fold-improvement over 29G4v22 Ab": 3.4, "IC50": 1950},
      {"binder": "B12", "Fold-improvement over 29G4v22 Ab": 2.8, "IC50": 2380},
      {"binder": "B13", "Fold-improvement over 29G4v22 Ab": 3.5, "IC50": 1920}
    ]}
  ]
}
